Assay results as given in the DeepSol protein solubility set.

assay: soluble on expression in E. coli; label from the status in PepcDB or PDB records

Q: With “MSLSRTIEDRAAEFAIQPSYHALGGEFVRAPVETLREMLGAFGISLDGPPPDRAPPEMRAPDGYRCFLPEGEMRRWGIAAQLYQLRSERNWGIGDFADLCDLARIGGAAGADFIGLNPLHALFLANPAHTSPFSPSNRRFLNPLYIAVDRVPGYRPEFAPEGLGQLRAPDLVDYPAVAAAKLGALRRLWREGPDDAMGFMRFCAEGGELLRRHALFEAISGQMVADGYGAGWLGWPVEFHDAEGQAVIDFADARGDEVGFHLWLQWIADRQLEEARDACRAAGMKIGLYLDFAVGEVPDGSSTWSDPSLAVPGLRIGASPDWFNAQGQDWGLAPLSPVKLADLRAAPFGALMQDATRRAGALRIDHAMGVWQLFLIPDGMGAPQGTYVRYPIEDMLRALAEASCRNRTIVIGEDLGNVPDGFRELMARMNILSYRILLFERHDHGYIAPEHYPREALVCLSTHDLPTFRGWWRGDDVAIRRDFRLISDEAARQQGDFRWTERRQLLEDLARAGLMAWDEIDRIGPDDPPEALVVAVHRHLARAPSRLFAVRIEDMAGEVAPVNVPSTVDEHPNWRRRLGVPLEALGETALFRGIAGALEAEREGHHHHHH” as the sequence, how does the “soluble on expression in E. coli” value read?
A: soluble

Q: With “MKKLAAIISATLLFASSAAVAEVYVGGKVGKSWLDDACLAGQSCEDDDQVVGAFLGYQANKWLSLEAGYDYLGKFTAAGLNDEKVQAVTLAPKLSIPLTEGIALYGKVGGAYVDYGSKDDYSYLGAAGLEFNTNHNVTMRLEYQNLTDINNDIVRARAETATLGIAYKFGGSEEPAPVVEQRPAEPAPVAAPVEKVAVTKTFTFQHLDSSTFATASAELKPATVQKLDKIVGYLNQYPQAKVEVVGHTDSTGSEAYNQKLSERRAQAVAKALEAQGIDASRISAKGLGESSPIASNATAEGREKNRRVELVIPEFQYQVTE” as the sequence, how does the “soluble on expression in E. coli” value read?
A: not soluble

Q: Which “soluble on expression in E. coli” value does the source give for “MAKWGQGDPRWIVAEREDGTNVNNWHWTARDATIWSKGKLRELLVGIAMENEAGRCEISELKQVEGEASCNSRKGKLIFFYEWNIKLAWKGTVKESGAKHKGLIEIPSLSEENEINDTEVNVSKKKGDGEILKDLMRTTGTAKVREALGEYLKALKTEFTTGMILPTKAVATQELTLQRKLNENKLQASPVALGVRIPTVALHLTELFDTTVEQLYSIFTVKELVQKFSKSPAVLEAERGGKFQMFDGNISGEYVELVTNRKIIMKWRCRNWPEALGFFPRTLCNS” here?
A: not soluble

Q: With “MSLSNYISIKGAKVNNLKNIDVNIPRNKLVVITGLSGSGKSSLAFDTLYAEGQRRYVESLSSYARQFLGRMSKPECDFIKGIPPAIAIEQKVNSRNPRSTVGTSTEIYEYLRLLYARVGKTYSPISGQLVKKHSIEDIVNCMLSFPKGTKYTVLTPMMPREGRTLLQQLEMDLKQGFTRIEVNREIVRIEDFLQQTAAEDKKQNIYLLVDRMTADDSKDSISRLTDSAETAMYEGDGNCLLRFYSADGSTQLFSFSTKFETDGIKFEEPNDQMFSFNSPLGACPECEGFGKVIGIDEHLVIPNRALSVYDGAVLCWRGEKMGEWLQEFIHEAPAHDFPIFAPYYELTQEQKDYLWHGPRNKACIDSFFKMLEENQYKIQYRVMLARYRGKTICPVCHGTRLKKEAGYVKVGGKSISQLVDLPIHDLKEFFRTLELDAHDTAIAKRILTEITNRINFLMDVGLGYLTLNRLSNSLSGGESQRINLATSLGSSLVGSLYILDEPSIGLHSRDTDRLIKVLRQLQELGNTVVVVEHDEEIIRAADYIIDIGPQAGRLGGQIVYQGNMNDLQRNEGHHHHHH” as the sequence, how does the “soluble on expression in E. coli” value read?
A: soluble

Q: For “MFSKSSNRFGTTSIFGDQSIKDEYRNRQRRLSLIGGPISGTSPNRRESLVRELRTVSLHQYTEDPTLAWEMLKEKRPVKPVRQMRLDTPVKPDHVRFVCIGCTHGEQFDISKLPPGDVLLVAGDFTSCGLPNEVHNFNKLLGKLKYSYKVVIGGNHECTFDDTFLKLKQESEPKEMALKQALLSAIHSDSKGGISAKDLLSNAIYLEDNVIELFGITIYGTPWQPKVDNWAFNLSRGQQLLDKWNLIPAALTCF”, which “soluble on expression in E. coli” value is on record?
A: not soluble

Q: With “MTKRIEIKPATAADQAALAEIYLVDRQQDFPWVTDPQLQDFNEDSRGEFVLVAWIDGQRAGFCSLYRLANFIHLLFVAPDFRHLKVGERLLTEMRQYATEPLTLKCVMANENALRFYAQVGFRIVK” as the sequence, how does the “soluble on expression in E. coli” value read?
A: not soluble

Q: With “MSWQEKINAALDARRAADALRRRYPVAQGAGRWLVADDRQYLNFSSNDYLGLSHHPQIIRAWQQGAEQFGIGSGGSGHVSGYSVVHQALEEELAEWLGYSRALLFISGFAANQAVIAAMMAKEDRIAADRLSHASLLEAASLSPSQLRRFAHNDVTHLARLLASPCPGQQMVVTEGVFSMDGDSAPLAEIQQVTQQHNGWLMVDDAHGTGVIGEQGRGSCWLQKVKPELLVVTFGKGFGVSGAAVLCSSTVADYLLQFARHLIYSTSMPPAQAQALRASLAVIRSDEGDARREKLAALITRFRAGVQDLPFTLADSCSAIQPLIVGDNSRALQLAEKLRQQGCWVTAIRPPTVPAGTARLRLTLTAAHEMQDIDRLLEVLHGNG” as the sequence, how does the “soluble on expression in E. coli” value read?
A: soluble

Q: Which “soluble on expression in E. coli” value does the source give for “MGSSHHHHHHSSGLVPRGSHASMAAEMDWDKTVGAAEDVRRIFEHIPAILVGLEGPDHRFVAVNAAYRGFSPLLDTVGQPAREVYPELEGQQIYEMLDRVYQTGEPQSGSEWRLQTDYDGSGVEERYFDFVVTPRRRADGSIEGVQLIVDDVTSRVRARQAAEARVEELSERYRNVRDSATVMQQ” here?
A: soluble

Q: For “MGSDKIHHHHHHMADRASEAELIKLPVSKLTRGMFVAAIENNGKVAVANAGQIKSRETIAKLVKSGIHHVWVDAERSSDESGLKPKSAQGSAAPAAGAVRPSRANRDLRQTQAKKLLHEAKELIRKVLSETFEGKAIEVKPFEALADNMIESIMLDDDALKCVSALRDKDAYLLEHSVNVAFLLVTFGKYLKLDRETLKQMAVGGVLHDIGKIKVDNKILHKPGKLTPEEFEHMKLHQFYAMDIMSEASALSQISKDVCLMHHEKLDGRGYPRGLKGDEIPLHGRMSCIVDIFDALTATRCYKEAMSPAAAFKILLSLTPFHLDTDLVYEFIRCIGVYPVGSLVELSDGRVGIVWESKDRDALSPVVKCFYSLKHKRYTEVNFVDLLKSDLNIERGVSPSSLDVDPKPFY”, which “soluble on expression in E. coli” value is on record?
A: not soluble

Q: With “MAGTTTYELIDYLEGKDILVVSNGLSHIDTLIQKNIKCYVIGGNIKISTKAITGCDALMCLSKFRFDKCFIGANGVHHTYGLTTPDTEEAILKECAINNSRKAYVLADDSKFGEISTIKFSDINKCVIITNEKPKDNTYDKKTDIKVVDILEHHHHHH” as the sequence, how does the “soluble on expression in E. coli” value read?
A: not soluble

Q: For “MGSDKIHHHHHHMAGYNTYVVGKWHVGTKSVPEDYGIKGHNFDGYGYPGSGVYKNLVFNQPPTHSNRYKEWLEEKGYEIPEVSRAYFGDNPHLRVQELCGLLSGAKDQTIPYFIIDEAKKYIQESLDEGKPFFAWINFWGPHTPCIVPEPYYSMYRKEDVVLDKSFFTPLEGKPDHFRTISKMWGMWEASEDHWKEVITKFWGYITLIEDDNLVYLHDLTSTVFDLANQKVPESFEGQSVLPIMRQHQDNQRKGVLGQLAGHFVYFEQRMWRRKDYKLVFNATDVCELYNIRNDPEEMHNLFYDPQYNRIKKEMLEEMRAEMKRLNDPLENWVYRIIDEI”, which “soluble on expression in E. coli” value is on record?
A: not soluble

Q: For “MGNCLSTSDPSHEDVSKKLPKALPVDAAFKFPSPLPTFTRGDGFAKGTIDLGGGLEVSQVSTFNKVWSTYEGGPDNLGATFFEPSSIPSGFSILGYYAQPNNRNLFGWVLTARDLSSNTLKPPVDYTLVGNTESLKIKQDGTGYFWQPVPPDGYQAVGLIVTNYSQKPPLDKLRCIRSDLTEQCEADTWIWGTNGVNISNLKPTTRGTQATGVYVGTFTWQTQNSSPPSLSCLKNTKLDFSTMPNGSQIEELFQTFSPCIYFHPDEEYLPSSVTWYFNNGALLYKKGEESKPIPIESNGSNLPQGGSNDGSYWLDLPIDKNGKERVKKGDLQSTKVYLHIKPMLGATFTDISIWIFYPFNGPAKAKVKFVNLPLGRIGEHIGDWEHTTLRISNFTGELWRVFLSQHSGGIWIDACDLEFQDGGNNKFVAYASLHGHAMYPKPGLVLQGDDGVGIRNDTGKGKKVLDTGLGYEVIAAEYDGGGVVEPPWVKYFRKWGPKIDYNVDDEVKSVERILPGLLKKAFVKFVKKIPDEVYGEDGPTGPKLKSNWAGDES”, which “soluble on expression in E. coli” value is on record?
A: not soluble

Q: For “MGSDKIHHHHHHMSKILNTQLIGIFNRLEKQSLEIQMAAQCLIQAIGGEGYVYVKGYDDLQFFESFILHSDERLKSSRKLDAIKDFKEIDSTDRVLLFAPFYNDQVALDIQKLIDLDIDVVLISNKPKTDDFPDHLVHFIDLSTPRPIVYTEDYDKIVQPHAIALNYVYYDIYTQMIEMTRDLEL”, which “soluble on expression in E. coli” value is on record?
A: not soluble

Q: Which “soluble on expression in E. coli” value does the source give for “MAHHHHHHMLQRLSHRSVLGYHGAPQVAALRCSLRFGTNIGGSYYQESDTAGTHQMNNDIRLGLVIKPQSTLVELWEQALKAWPTRRFLGSKMWVRGKLGYVWATYESINTEVEAMRTLLHSMGVEKGSRVVVISENRYEWVVVHFATMQLGAHFVALPTNVTPSEAQLVVKSTQSKVLFVETKASYAAIKGWIGRVGQLEHAICFEDQVGEGSYAVAISIAADVPEKTLARTDVRAEDTAMIVFTAGTTGPPKGVMLSHKSIVANVSSVYASLGEALTHSDMFMSLCSWCVAGALTTDLYQALCKGACVCIPPEILEGFQDLPLVNPSVIVSVAQPFQRAYANIVDDILNRRSFTKDLTRFVVGRITENRLMFKKPGRTLQAFSHALLGKFKAQFGSELRVAIIIGHQLTKDQSELMADLDVFVVNTYGFMEAGGLVATDVDVPQRLKALPGLEVRVVNEKNEIVAPGDLGEILIEAPNAMQGYFDVHIDPEEAKNSLVEYGSRTFVRSGDYGTLTGGWITVKGNKDVLITLANSKTVNPLEVEAALTKSPFIKQVFIYGNRHPYVVALVVANTKAIAAHLRKVERRDGVPLVNDREKADCIRAELRRVSQDLPPRAHVRRFAFVDEFTLANGFMTVKMGYARQKIEDHYVHYFEALYDETPKFYGFAVDDYDDLF” here?
A: soluble

Q: For “MSLRGESSGLMAYKAEDIYFTLFNGLHGSAHGHASTGGFTLQLQGDDLFSDSGRYSYVNKSERLQLKECASHNTMFIAENPHTLVSDTWGYDKLPTPLFQQIKELSVGFFAECGWLDKADQNPMIFERSFIYLKSINSVVIIDSFAGQKETEITSTYNLAPSINCQKEAHRFALTTNKHKYTLLFAGGQTQQSVAKGSEIYNQLNEHPRLSNKFCYKTGKEIQATVISPLEDIQITPIKVSQTGENEQFCQAKGFRIIAGSEKFDLFVMREDIVKGNKLLVSEYGQFFYGRLVLIDQKEAKIRIKEGHHHHHH”, which “soluble on expression in E. coli” value is on record?
A: soluble

Q: With “MAIDHYENFPVASLLLPRRLRGAVTDIYRFARAADDIADEGAAEDAERLRQLAAFRAELHRIGAEPGTLAVPASADLAPIFTPLAATIARHQLPITPFFDLLSAFEQDISVKRYESHDDLLDYCRRSANPVGRLMLHLYGAVDEANLRDADAICTGLQLVNFWQDVRIDWRKQRVYLPEEDLRRHGVSRDDLAACRLTPQWRELMAFEVQRTRALLHSGAALPRRLPGRIGLELRLVVQGGLRILQRIEDAGYDVFMNRPELGAKDWAVMLWRAFT” as the sequence, how does the “soluble on expression in E. coli” value read?
A: not soluble

Q: With “MGSDKIHHHHHHMIYKMTDKDMEILFERISKDFQSFGSKEENGDIVFGDIQRFSDISEEKSSYPPKDFLIERSENILSIPRAEKRAVFGVKSCDLRGFYIMDKQILGKDPFYTVKRENTMFINFVCEKMCSGGFCTSFGGPVLDEYDVQVLHKNGYFYVEASDKYEKYLFGFSESDDQNVFEEHKKEFESLYGRLNVDGIENRMKWSSNLWNKFANYCISCGACNYSCPTCYCVDVYDDDDGRKKEWDSCILEGFTRTAAGNVRPELSERLRQRFYHKFKYYKLSRGAYLCTGCNRCVDDCPVDIDIKEVITHDYDRE” as the sequence, how does the “soluble on expression in E. coli” value read?
A: not soluble

Q: For “MILTPIRRYGAMILMLLTLVFSSEVLAKTHTTTASQKSHLTKASNKQVSSKQEYSRNSAKSSSLPDLRKYPSGTSRKKAFLRTVMPYITSQNAAITAERNWLISKQYQGQWSPAERARLKDIAKRYKVKWSGNTRKIPWNTLLERVDIIPTSMVATMAAAESGWGTSKLARNNNNLFGMKCMKGRCTNAPGKVKGYSQFSSVKESVSAYVTNLNTHPAYSSFRKSRAQLRKADQEVTATAMIHKLKGYSTKGKSYNNYLFAMYQDNQRLIAAHM”, which “soluble on expression in E. coli” value is on record?
A: not soluble
